The data set in a line: protein stability index of a GFP-peptide fusion (yeast GPS) (PSI 1-4); higher = more stable; sorted into four equal gates, so the index is relative within each strain. Put shortly:
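Tiled 17-residue yeast protein peptides were fused downstream of GFP in a plasmid that also expresses Cherry, and the pooled library was carried in yeast. Mid-log cultures in leucine-free medium were sorted into four equal gates by GFP/Cherry fluorescence ratio, and plasmids from each gate were PCR-amplified and Illumina-sequenced, with reads assigned to strains by barcodes. The protein stability index for each peptide was each gate's read frequency times its gate number, summed.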

± gives the uncertainty stated by the source.

Regarding ISYTSHIEGVVILKKNP [RPN1], the protein stability index by setting is: (doa10∆) 2.57 ± 0.059; (pdr5∆) 3.14 ± 0.078; (san1∆) 2.87 ± 0.077; (ubr1∆) 2.52 ± 0.046.
On the same counts, the results for EDGMIIDVNLNFARQLL [RRP40] are 3.15 ± 0.086, 3.23 ± 0.074, 3.26 ± 0.079 and 3.11 ± 0.063.
Taken in the same sequence, the figures for VRPFGVSTLIAGFDPRD [PRE6] were 1.5 ± 0.15, 1.7 ± 0.13, 1.75 ± 0.17 and 1.41 ± 0.084.
As to EFQIEDAIWSLVFQLAK [SRB8], the protein stability index by setting is: (doa10∆) 3.63 ± 0.18; (pdr5∆) 3.36 ± 0.23.
For the sequence ENEISSLLAMHKHNIMK [CDC53], the protein stability index (doa10∆) was determined as 2.92 ± 0.079, the protein stability index (pdr5∆) came to 2.99 ± 0.059, the protein stability index (san1∆) amounted to 3.02 ± 0.052 and the protein stability index (ubr1∆) was 3.07 ± 0.039.
Taken in the same sequence, the figures for SRKQKIAKTFTVDVSSP [RPL22A] were 2.81 ± 0.08, 3.1 ± 0.077, 2.95 ± 0.069 and 2.68 ± 0.05.
Take SLNFIPITASTSRVFAK [YML103C/NUP188]: the protein stability index (pdr5∆) turned out to be 1.58 ± 0.28 and the protein stability index (san1∆) was found to be 2.06 ± 0.26.
For SPTENGVFDPASYSKYL [RPL22B], the protein stability index (doa10∆) came to 3.18 ± 0.074, the protein stability index (pdr5∆) came out at 3.25 ± 0.083, the protein stability index (san1∆) was found to be 3.05 ± 0.066 and the protein stability index (ubr1∆) came out at 2.87 ± 0.06.
On the same counts, the results for HLPCTIEAEEAEEIGVE [RPN8] are 1.8 ± 0.078, 1.74 ± 0.082, 2.59 ± 0.11 and 2.89 ± 0.053.
On the same counts, the results for QEETVVEQTAEVTIEDA [RPS12] are 3.36 ± 0.12, 3.38 ± 0.13, 3.19 ± 0.048 and 3.33 ± 0.056.
On to NNQQRLLLKKLDNFQKS [SMC3], for which the protein stability index reads like this: (doa10∆) 2.55 ± 0.06; (pdr5∆) 2.64 ± 0.068; (san1∆) 2.41 ± 0.054; (ubr1∆) 2.45 ± 0.043.
On the same counts, the results for RNFLETVELQVGLKNYD [RPL1A] are 3.01 ± 0.087, 3.08 ± 0.079, 3.1 ± 0.091 and 3.15 ± 0.074.
As for GVIDDSFDVAISTACPR [SMC4], the protein stability index worked out at 2.59 ± 0.077 (doa10∆), 3.09 ± 0.046 (pdr5∆), 2.45 ± 0.058 (san1∆) and 2.7 ± 0.049 (ubr1∆).
On the same counts, the results for MPNDNKTPNRSSTPKFT [SIR4] are 2.66 ± 0.1, 2.55 ± 0.19, 3 ± 0.062 and 3.09 ± 0.086.
On the same counts, the results for IYSPLHSFIKMLQMKGK [SIR2] are 2.1 ± 0.064, 1.79 ± 0.058, 1.91 ± 0.14 and 1.88 ± 0.051.
On to GCKNGSFTLLNQLSQTN [NUT1], for which the protein stability index by setting is: (doa10∆) 2.86 ± 0.12; (pdr5∆) 3.05 ± 0.079; (san1∆) 2.97 ± 0.095; (ubr1∆) 3.22 ± 0.11.
Taken in the same sequence, the figures for ELGNMTMLITGQRPDRA [SIN4] were 2.54 ± 0.09, 2.83 ± 0.056, 2.69 ± 0.09 and 2.31 ± 0.073.
Taken in the same sequence, the figures for MQKHGYIGEFEYIDDHR [RPS22A] were 3.16 ± 0.083, 3.19 ± 0.084, 2.93 ± 0.07 and 3.24 ± 0.093.
On the same counts, the results for AMTAAEHGLHAPAYAWS [CYT1] are 3.16 ± 0.13, 3.31 ± 0.097, 2.8 ± 0.13 and 3.27 ± 0.064.
On to IDDNYIVVVIEIITSLS [SRB8], for which the protein stability index is, setting by setting: (doa10∆) 2.6 ± 0.11; (pdr5∆) 2.87 ± 0.081; (san1∆) 2.16 ± 0.082; (ubr1∆) 2.22 ± 0.086.
For LEHVLLVPTASFFIASQ [FAS1], the protein stability index (doa10∆) is 1.25 ± 0.033, the protein stability index (pdr5∆) stood at 1.46 ± 0.038, the protein stability index (san1∆) is 1.45 ± 0.064 and the protein stability index (ubr1∆) was 1.31 ± 0.027.
Turning to EKAKSAGVQGSKVSKQQ [RPL24B], the protein stability index was found to be 3.48 ± 0.14 (doa10∆), 3.4 ± 0.11 (pdr5∆) and 3.31 ± 0.14 (san1∆).
In the case of TLNSRALSGLYYKNFHN [SNM1], the protein stability index (doa10∆) was determined as 2.17 ± 0.052, the protein stability index (pdr5∆) amounted to 2.38 ± 0.06, the protein stability index (san1∆) came to 1.88 ± 0.063 and the protein stability index (ubr1∆) stood at 2 ± 0.042.
Turning to GEFETKIAGIEGHLAEI [SRB2], under “ubr1∆”, the protein stability index came to 3.1 ± 0.13.
Turning to RGYWGTNLGQPHSLATK [RPS2], the protein stability index (doa10∆) was 2.68 ± 0.23, the protein stability index (pdr5∆) came out at 3.18 ± 0.16, the protein stability index (san1∆) was found to be 3.04 ± 0.1 and the protein stability index (ubr1∆) was determined as 2.85 ± 0.093.
Consider NFEKPKNSSQLLNEWSH [RPN5], for which the protein stability index runs as follows: (doa10∆) 2.83 ± 0.087; (pdr5∆) 3.11 ± 0.078; (san1∆) 2.88 ± 0.063; (ubr1∆) 3.12 ± 0.087.
For the sequence QGGVLPNIHQNLLPKKS [HTA1], the protein stability index amounted to 2.67 ± 0.082 (doa10∆), 2.75 ± 0.074 (pdr5∆), 2.9 ± 0.076 (san1∆) and 2.71 ± 0.057 (ubr1∆).
On to SNGVLNVDNQTSDLVKS [RPS17A], for which the protein stability index was 2.83 ± 0.12 (doa10∆), 2.88 ± 0.12 (pdr5∆), 3.06 ± 0.18 (san1∆) and 2.86 ± 0.075 (ubr1∆).
Taken in the same sequence, the figures for HPYEYEIDHQEYSPEIL [RRP6] were 2.75 ± 0.048, 2.69 ± 0.042, 2.83 ± 0.059 and 2.76 ± 0.035.
Take FVWLSSEENIGSGLLKL [SWI1]: the protein stability index (doa10∆) came out at 3.3 ± 0.098, the protein stability index (pdr5∆) came to 3.19 ± 0.09, the protein stability index (san1∆) is 3.28 ± 0.067 and the protein stability index (ubr1∆) worked out at 3.38 ± 0.068.
On the same counts, the results for HSRKMNLTRGINLRKVA [RPT6] are 1.26 ± 0.075, 1.36 ± 0.05, 1.3 ± 0.11 and 1.2 ± 0.043.
Turning to DFDLFKEVLPDLQNLNL [YJL039C/NUP192], the protein stability index reads like this: (doa10∆) 3.44 ± 0.095; (pdr5∆) 3.17 ± 0.11; (san1∆) 3.19 ± 0.07; (ubr1∆) 3.4 ± 0.16.
Taken in the same sequence, the figures for LLLNYLELIGVLSINPD [MED7] were 1.6 ± 0.067, 1.78 ± 0.063, 1.31 ± 0.14 and 1.49 ± 0.058.
In the case of FNRLKKQAHEKLDASKK [YIL149C/MLP2], the protein stability index turned out to be 2.95 ± 0.086 (doa10∆), 3.08 ± 0.099 (pdr5∆), 3.41 ± 0.069 (san1∆) and 3.14 ± 0.082 (ubr1∆).
On the same counts, the results for PKILIREHERVILKQIL [SWP82] are 1.84 ± 0.081, 2.18 ± 0.092, 3.18 ± 0.24 and 3.15 ± 0.12.
Taken in the same sequence, the figures for SLPEELKKRYDLSYNFN [YMR129W/POM152] were 2.84 ± 0.1, 2.67 ± 0.094, 2.9 ± 0.08 and 2.94 ± 0.091.
Taken in the same sequence, the figures for IESALKSKLDQDSTSEN [RPN2] were 2.76 ± 0.072, 3.04 ± 0.073, 2.87 ± 0.076 and 2.95 ± 0.1.
For LYDNFVSKFYDKINQLS [RPN9], the protein stability index came out at 2.78 ± 0.098 (doa10∆), 2.69 ± 0.077 (pdr5∆), 1.58 ± 0.15 (san1∆) and 2.43 ± 0.077 (ubr1∆).
As for FNLLILSLNKRIYDREP [YCG1], the protein stability index (doa10∆) was 2.75 ± 0.11, the protein stability index (pdr5∆) was found to be 2.41 ± 0.091, the protein stability index (san1∆) was found to be 2.22 ± 0.13 and the protein stability index (ubr1∆) amounted to 2.33 ± 0.045.

For the origin of these results see the supplement of paper PMC9732359.
